This is an account of results in the supplement of paper PMC9112550, “Optimization of the antimicrobial peptide Bac7 by deep mutational scanning” (BMC Biology, 2022).
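Further: peptides expressed intracellularly from a pBAD plasmid library in pooled LB shake-flask culture, induced with 0.3% L-arabinose, DNA abundance read by NGS, three biological replicates, DESeq2 with apeglm shrinkage.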

In the data set the test system is Escherichia coli TOP10. Nature of the data set: shrunken log2 fold change of peptide-encoding DNA abundance (4.5 h post-induction vs induction); higher = less antimicrobial activity (less host growth inhibition). As to conditions: time post-induction: 4.5 h; library: site-saturation at positions 5, 18, 19, 20.
As for RRIRARPPRLPRPRPRPGFLPRP, the “shrunken log2 fold change” value was found to be 0.426.

In the case of RRIRRRPPRLPRPRPRPFWRPRP, the “shrunken log2 fold change” value worked out at 0.0251.

In the case of RRIRRRPPRLPRPRPRPDYLPRP, the “shrunken log2 fold change” value was found to be 0.152.

RRIRKRPPRLPRPRPRPVYSPRP: the “shrunken log2 fold change” value was 0.0204.

Take RRIRPRPPRLPRPRPRPFPMPRP: the “shrunken log2 fold change” value was -0.175.

For RRIRFRPPRLPRPRPRPCNHPRP, the “shrunken log2 fold change” value is -0.41.

Consider RRIRLRPPRLPRPRPRPHWPPRP, for which the “shrunken log2 fold change” value stood at 0.00985.

Take RRIRDRPPRLPRPRPRPGNGPRP: the “shrunken log2 fold change” value is 0.12.

RRIRHRPPRLPRPRPRPSTPPRP: the “shrunken log2 fold change” value is -0.225.

As to RRIRGRPPRLPRPRPRPIYAPRP, the “shrunken log2 fold change” value stood at 0.14.

Regarding RRIRPRPPRLPRPRPRPDYGPRP, the “shrunken log2 fold change” value worked out at 0.014.

Consider RRIRERPPRLPRPRPRPFNKPRP, for which the “shrunken log2 fold change” value was -0.383.

For the sequence RRIRHRPPRLPRPRPRPPFVPRP, the “shrunken log2 fold change” value is 0.0135.

Take RRIRIRPPRLPRPRPRPMLYPRP: the “shrunken log2 fold change” value was -0.33.

Regarding RRIRNRPPRLPRPRPRPWHMPRP, the “shrunken log2 fold change” value is -0.0135.

RRIRGRPPRLPRPRPRPECLPRP: the “shrunken log2 fold change” value was 0.685.

On to RRIRCRPPRLPRPRPRPHLQPRP, for which the “shrunken log2 fold change” value is -0.319.

Turning to RRIRGRPPRLPRPRPRPSYPPRP, the “shrunken log2 fold change” value is -0.215.

In the case of RRIRWRPPRLPRPRPRPRFRPRP, the “shrunken log2 fold change” value worked out at 0.314.

Take RRIRTRPPRLPRPRPRPHHAPRP: the “shrunken log2 fold change” value is -0.00367.

As for RRIRARPPRLPRPRPRPGYAPRP, the “shrunken log2 fold change” value stood at 0.0374.

Consider RRIRQRPPRLPRPRPRPEWIPRP, for which the “shrunken log2 fold change” value was -0.00133.

On to RRIRERPPRLPRPRPRPYRGPRP, for which the “shrunken log2 fold change” value is -0.00417.

As to RRIRVRPPRLPRPRPRPTFRPRP, the “shrunken log2 fold change” value is 0.218.

Regarding RRIRRRPPRLPRPRPRPSYPPRP, the “shrunken log2 fold change” value is -0.115.

For the sequence RRIRIRPPRLPRPRPRPGMVPRP, the “shrunken log2 fold change” value turned out to be 0.0533.

Take RRIRRRPPRLPRPRPRPFDCPRP: the “shrunken log2 fold change” value was determined as 0.264.

Turning to RRIRARPPRLPRPRPRPGDDPRP, the “shrunken log2 fold change” value came out at 0.846.

Take RRIRDRPPRLPRPRPRPSMFPRP: the “shrunken log2 fold change” value is -0.144.

As for RRIRDRPPRLPRPRPRPLINPRP, the “shrunken log2 fold change” value is 0.125.

Consider RRIRYRPPRLPRPRPRPYHQPRP, for which the “shrunken log2 fold change” value was -0.662.

Turning to RRIRCRPPRLPRPRPRPNKQPRP, the “shrunken log2 fold change” value was -0.201.

In the case of RRIRQRPPRLPRPRPRPWQCPRP, the “shrunken log2 fold change” value is -0.1.

Turning to RRIRNRPPRLPRPRPRPKYVPRP, the “shrunken log2 fold change” value is -0.00968.

Regarding RRIRYRPPRLPRPRPRPGGDPRP, the “shrunken log2 fold change” value turned out to be 0.137.

Consider RRIRHRPPRLPRPRPRPWGRPRP, for which the “shrunken log2 fold change” value worked out at 0.0574.

Regarding RRIRIRPPRLPRPRPRPQIEPRP, the “shrunken log2 fold change” value is -0.0116.

For RRIRDRPPRLPRPRPRPGIWPRP, the “shrunken log2 fold change” value stood at 0.252.

For the sequence RRIRNRPPRLPRPRPRPDYFPRP, the “shrunken log2 fold change” value is -0.209.

In the case of RRIRCRPPRLPRPRPRPNSIPRP, the “shrunken log2 fold change” value is -0.314.

In the case of RRIRIRPPRLPRPRPRPIFVPRP, the “shrunken log2 fold change” value was -0.28.

With RRIRDRPPRLPRPRPRPWKQPRP, the “shrunken log2 fold change” value is -0.0551.

On to RRIRFRPPRLPRPRPRPVEHPRP, for which the “shrunken log2 fold change” value is -0.0778.

For the sequence RRIRPRPPRLPRPRPRPGFYPRP, the “shrunken log2 fold change” value is -0.421.

In the case of RRIRFRPPRLPRPRPRPTCTPRP, the “shrunken log2 fold change” value was -0.0787.

For RRIRWRPPRLPRPRPRPSDPPRP, the “shrunken log2 fold change” value is 0.00652.

Regarding RRIRDRPPRLPRPRPRPMFNPRP, the “shrunken log2 fold change” value is -0.0203.

Take RRIRDRPPRLPRPRPRPGEHPRP: the “shrunken log2 fold change” value stood at 0.0372.

For RRIRNRPPRLPRPRPRPACQPRP, the “shrunken log2 fold change” value is -0.0318.

On to RRIRHRPPRLPRPRPRPGVRPRP, for which the “shrunken log2 fold change” value stood at 0.175.

As for RRIRMRPPRLPRPRPRPLLGPRP, the “shrunken log2 fold change” value stood at 0.495.

As for RRIRRRPPRLPRPRPRPNWTPRP, the “shrunken log2 fold change” value was -0.285.

For the sequence RRIRDRPPRLPRPRPRPEQTPRP, the “shrunken log2 fold change” value was found to be 0.0162.

Take RRIRDRPPRLPRPRPRPPMMPRP: the “shrunken log2 fold change” value is -0.0737.

Consider RRIRQRPPRLPRPRPRPGRDPRP, for which the “shrunken log2 fold change” value turned out to be 3.85.

RRIRGRPPRLPRPRPRPNNYPRP: the “shrunken log2 fold change” value is 0.0781.

Consider RRIRWRPPRLPRPRPRPACNPRP, for which the “shrunken log2 fold change” value is -0.144.

With RRIRKRPPRLPRPRPRPIVTPRP, the “shrunken log2 fold change” value came out at 0.102.

Consider RRIRSRPPRLPRPRPRPVRYPRP, for which the “shrunken log2 fold change” value was 0.0544.

On to RRIRPRPPRLPRPRPRPCQYPRP, for which the “shrunken log2 fold change” value was determined as 0.0594.

In the case of RRIRRRPPRLPRPRPRPKFLPRP, the “shrunken log2 fold change” value stood at 0.133.

On to RRIRERPPRLPRPRPRPYEEPRP, for which the “shrunken log2 fold change” value is -0.636.

Regarding RRIRPRPPRLPRPRPRPLHWPRP, the “shrunken log2 fold change” value was found to be 0.481.

As for RRIRLRPPRLPRPRPRPKCNPRP, the “shrunken log2 fold change” value was -0.647.

With RRIRQRPPRLPRPRPRPGINPRP, the “shrunken log2 fold change” value is -0.296.

In the case of RRIRHRPPRLPRPRPRPYATPRP, the “shrunken log2 fold change” value was -0.172.

Turning to RRIRKRPPRLPRPRPRPYQRPRP, the “shrunken log2 fold change” value was -0.0062.

As to RRIRVRPPRLPRPRPRPKMPPRP, the “shrunken log2 fold change” value was -0.0804.

For RRIRYRPPRLPRPRPRPADDPRP, the “shrunken log2 fold change” value was -0.0179.

As to RRIRNRPPRLPRPRPRPRDMPRP, the “shrunken log2 fold change” value was -0.121.

RRIRARPPRLPRPRPRPPPSPRP: the “shrunken log2 fold change” value came out at 1.26.

For RRIRIRPPRLPRPRPRPELNPRP, the “shrunken log2 fold change” value was 0.12.

RRIRMRPPRLPRPRPRPMKTPRP: the “shrunken log2 fold change” value was -0.00191.

As for RRIRMRPPRLPRPRPRPRAPPRP, the “shrunken log2 fold change” value was determined as 1.18.

Take RRIRHRPPRLPRPRPRPVQGPRP: the “shrunken log2 fold change” value was 0.207.

On to RRIRQRPPRLPRPRPRPRPEPRP, for which the “shrunken log2 fold change” value worked out at 0.646.

For RRIRCRPPRLPRPRPRPTRPPRP, the “shrunken log2 fold change” value came out at 0.938.

Consider RRIRSRPPRLPRPRPRPKHDPRP, for which the “shrunken log2 fold change” value is -0.0942.

For RRIRARPPRLPRPRPRPTNMPRP, the “shrunken log2 fold change” value is -0.275.

With RRIRFRPPRLPRPRPRPNMPPRP, the “shrunken log2 fold change” value is -0.443.

For RRIRKRPPRLPRPRPRPTTTPRP, the “shrunken log2 fold change” value came out at 0.494.

Regarding RRIRCRPPRLPRPRPRPHATPRP, the “shrunken log2 fold change” value is 0.204.

Turning to RRIRPRPPRLPRPRPRPWCWPRP, the “shrunken log2 fold change” value was found to be 0.233.

On to RRIRIRPPRLPRPRPRPHCDPRP, for which the “shrunken log2 fold change” value was -0.0356.

In the case of RRIRLRPPRLPRPRPRPRDNPRP, the “shrunken log2 fold change” value was -0.127.

Consider RRIRTRPPRLPRPRPRPKERPRP, for which the “shrunken log2 fold change” value is -0.0679.

As for RRIRGRPPRLPRPRPRPELTPRP, the “shrunken log2 fold change” value came to 2.02.

For the sequence RRIRPRPPRLPRPRPRPIEKPRP, the “shrunken log2 fold change” value is 0.0388.

As for RRIRQRPPRLPRPRPRPHWSPRP, the “shrunken log2 fold change” value was -0.161.

As to RRIRKRPPRLPRPRPRPIHTPRP, the “shrunken log2 fold change” value came out at 0.101.

With RRIRKRPPRLPRPRPRPCRIPRP, the “shrunken log2 fold change” value is -0.0405.
